Earlier results, collected in publication PMC10083361.

Target: TRAF2 (Homo sapiens) (UniProt Q12933)
Sequence (Q12933 2-501): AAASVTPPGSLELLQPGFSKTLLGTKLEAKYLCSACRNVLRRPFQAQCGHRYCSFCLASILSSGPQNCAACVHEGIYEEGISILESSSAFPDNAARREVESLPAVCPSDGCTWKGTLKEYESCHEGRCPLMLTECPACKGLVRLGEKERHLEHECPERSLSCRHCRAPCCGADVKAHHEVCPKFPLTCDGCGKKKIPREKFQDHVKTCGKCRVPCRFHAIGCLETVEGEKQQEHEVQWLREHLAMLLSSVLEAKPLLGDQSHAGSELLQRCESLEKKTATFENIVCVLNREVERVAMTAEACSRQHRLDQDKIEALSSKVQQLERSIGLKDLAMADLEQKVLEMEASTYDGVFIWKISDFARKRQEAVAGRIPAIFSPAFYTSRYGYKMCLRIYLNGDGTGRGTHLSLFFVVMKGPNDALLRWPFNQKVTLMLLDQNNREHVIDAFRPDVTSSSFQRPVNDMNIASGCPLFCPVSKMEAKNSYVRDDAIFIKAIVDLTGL

4-1BB, sequence (Q07011 24-255): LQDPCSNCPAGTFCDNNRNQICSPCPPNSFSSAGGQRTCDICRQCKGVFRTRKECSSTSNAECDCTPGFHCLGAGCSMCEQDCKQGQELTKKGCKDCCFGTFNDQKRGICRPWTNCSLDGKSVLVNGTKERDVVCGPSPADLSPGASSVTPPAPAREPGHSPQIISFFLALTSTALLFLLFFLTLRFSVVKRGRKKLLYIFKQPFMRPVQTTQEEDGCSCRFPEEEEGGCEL

## 4-1BB (from UniProt Q07011)
  Kd: 1000 µM
